Data: patent US20210115137A1 (NATIONAL UNIVERSITY CORPORATION HOKKAIDO UNIVERSITY, published 2021)

Target: T1, extracellular domain of mouse PIR-B (Domains 1 to 6), biotinylated (mouse, UniProt P97484 25-642, biotinylated with BirA (site not stated))
T1 construct: The full-length protein is cited as NCBI NM_011095; also called Paired-Immunoglobulin-like Receptor B; PIR-B (extracellular domain)
T1 sequence: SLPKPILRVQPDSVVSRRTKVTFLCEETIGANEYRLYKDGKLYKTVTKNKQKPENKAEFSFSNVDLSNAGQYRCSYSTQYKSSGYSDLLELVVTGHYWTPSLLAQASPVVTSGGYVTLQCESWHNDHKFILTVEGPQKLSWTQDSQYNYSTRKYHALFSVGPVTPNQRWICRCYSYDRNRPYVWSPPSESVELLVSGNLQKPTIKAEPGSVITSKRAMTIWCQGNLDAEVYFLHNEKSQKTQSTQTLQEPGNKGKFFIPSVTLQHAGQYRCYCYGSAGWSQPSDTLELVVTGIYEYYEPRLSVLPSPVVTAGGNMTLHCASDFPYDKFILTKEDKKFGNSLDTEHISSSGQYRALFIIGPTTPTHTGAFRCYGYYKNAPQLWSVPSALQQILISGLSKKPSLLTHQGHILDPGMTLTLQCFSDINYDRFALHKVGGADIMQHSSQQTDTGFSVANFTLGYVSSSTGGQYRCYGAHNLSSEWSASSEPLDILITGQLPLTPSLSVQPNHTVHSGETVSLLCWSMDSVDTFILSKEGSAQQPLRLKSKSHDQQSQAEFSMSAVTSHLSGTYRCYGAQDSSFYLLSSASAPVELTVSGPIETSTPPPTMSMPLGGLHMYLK
Test: SPR (BIAcore 3000), biotinylated PIR-B extracellular domain on streptavidin chip, HLA-G2 0.10-1.56 µM as analyte, 1:1 binding model
Protocol: Using BIAcore® 3000 (GE healthcare BIAcore), the affinity between HLA-G2 and the extracellular domain of PIR-B prepared as described above was determined in a surface plasmon resonance experiment. Streptavidin was first covalently fixed on a research grade sensor chip, and then the biotinylated extracellular domain of PIR-B or BSA as a negative control was fixed via the streptavidin. Then, a solution of HLA-G [α1-3] dimer in HBS-EP running buffer (10 mM HEPES pH7.5, 150 mM sodium chloride, 3.4 mM EDTA, 0.005% Surfactant P20) was run at 5 μL/min. Kinetics analysis of binding response was performed at various concentrations by subtracting the response measured in a control flow cell from the response measured in a sample flow cell. BIAevaluation version 4.1.1 (GE Healthcare) was used in the analysis.

B1: HLA-G2 (HLA-G [α1-3] dimer; complex of the α1 and α3 domains of the HLA-G molecule) (ligand)
chain: GSHSMRYFSAAVSRPGRGEPRFIAMGYVDDTQFVRFDSDSACPRMEPRAPWVEQEGPEYWEEETRNTKAHAQTDRMNLQTLRGYYNQSEANPPKTHVTHHPVFDYEATLRCWALGFYPAEIILTWQRDGEDQTQDVELVETRPAGDGTFQKWAAVVVPSGEEQRYTCHVQHEGLPEPLMLRW
notes: It was run in SPR as 'HLA-G [α1-3] dimer'; also called α1-3 complex
B1 was tested, and the Kd was 142 nM.
